Measurements reported in US20100004432, “APTAMER AGAINST MIDKINE AND USE THEREOF” (RIBOMIC INC., published 2010).

T1: midkine (full-length) (Homo sapiens, UniProt P21741 P21741:23-143)
T1 sequence: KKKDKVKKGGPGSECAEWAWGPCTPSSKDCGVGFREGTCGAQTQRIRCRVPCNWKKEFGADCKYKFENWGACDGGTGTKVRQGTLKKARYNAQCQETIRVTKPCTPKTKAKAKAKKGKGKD

B1: SEQ ID NO:45-1 (ssRNA)
RNA: GGGAGAGGAGAAGAGGAAGUGCACAGGGGUUGGUGUCGGGUGCAC
modifications: 5' PEG2000-C12; 3' idT; 2'-F pyrimidines; 2'-OMe all A in 5' single-stranded part
B2: SEQ ID NO:45-2 (ssRNA)
RNA: B1 RNA
modifications: 2'-F pyrimidines; 2'-OMe all A in 5' single-stranded part and G in loop: agggg(M)u(F)u(F)g(M)g(M)u(F)g(M)u(F)c(F)
B3: SEQ ID NO:45-4 (ssRNA)
RNA: B1 RNA
modifications: 2'-F pyrimidines; 2'-OMe all A in 5' single-stranded part and A, G in end stem: gu(F)g(M)c(F)a(M)c(F) and u(F)g(M)c(F)a(M)c(F)
B4: SEQ ID NO:45-3 (ssRNA)
RNA: B1 RNA
modifications: 2'-F pyrimidines; 2'-OMe all A in 5' single-stranded part and A, G in internal loop: a(M)g(M)ggg and c(F)g(M)g(M)g

Assays:
midkine (full-length) [1] = target: T1, midkine (full-length); assay: cell_activity; conditions: 500 nM; control
midkine (full-length) [2] = target: T1, midkine (full-length); assay: cell_activity; UMR106 migration inhibition, 500 nM RNA; conditions: tags: expressed in yeast
Procedure: 30 μL of 1.5 μM midkine was applied to the outer surface of the membrane of Chemotaxicell (membrane pore diameter 8 μm, manufactured by Kurabo) to immobilize the midkine to the outer surface of the membrane. The midkine-immobilized Chemotaxicell was placed on a 24-well culture plate containing 500 μL of a medium (supplemented with 0.3% bovine serum albumin, Dulbecco's Modified Eagle's medium) supplemented with each RNA aptamer added thereto at 100 nM. 200 μL of UMR106 cells were placed in the inner layer of the Chemotaxicell chamber at a density of 1×10⁶ cells/mL, and cultured at 37° C. for 4 hours. The cells remaining in the inner layer of the Chemotaxicell chamber were removed, and the cells that had infiltrated and adhered to the midkine-applied surface were fixed with methanol. The Chemotaxicell chamber was immersed in a 1% aqueous solution of Crystal Violet for 30 minutes to stain the cells. After the Chemotaxicell chamber was washed with distilled water and dried, the pigment was extracted with a mixed solution of 200 μL of 1% SDS and 1% triton X100. 150 μL of the extract was transferred to a 96-well microplate, and its absorbance at 590 nm was determined.
The aptamer shown by SEQ ID NO:5 is 77 nucleotides long, having the 2′-position of the ribose of the pyrimidine nucleotide fluoro-substituted. To enable the chemical synthesis, to reduce the toxicity, and to improve the stability in the blood, miniaturization and stabilization of this aptamer were performed. The operations of miniaturization and stabilization were performed on the basis of the secondary structure estimated by the MFOLD program, and the activity was evaluated by a cell migration inhibition experiment. The RNA concentration in the cell migration inhibition experiment was 100 nM or 500 nM. Since some errors occur in experimental results depending on cell condition, a previously assayed sample was included as a positive control in each measurement.

midkine (full-length) [3] = target: T1, midkine (full-length); assay: as above; conditions: tags: expressed in yeast; remark: listed apart in the source

Molecule | activity (midkine (full-length) [3]) | other results
tRNA | – | activity (% of SEQ 40 inhibition) (midkine (full-length) [1]): 28
GGGAAGGAGGAAGUGCACAGGGGUUGGUGUCGGGUGCAC (ssRNA, 5' PEG2000; as 61-4 but a(M)gg(M)g(M)g(M) and ggg(M)u(F)) [SEQ ID NO:61-9] | – | activity (midkine (full-length) [2]): 39 % of SEQ ID NO:40
B1 | 100 % of SEQ ID NO:40 | –
B2 | 100 % of SEQ ID NO:40 | –
B3 | 100 % of SEQ ID NO:40 | –
B4 | 56 % of SEQ ID NO:40 | –
